A short description of this data set: label from the status in PepcDB records.

The record followed here is a protein production outcome set (Wang et al. 2014).
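Further: failed if final PepcDB status was selected cloned or expressed and not failed if soluble or beyond.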

For the sequence “MSLAPCGLVPSARQLEWYNREMIAFFHFGINTFEEYVNEGDGKASTAIFNPTALDCRQWMQTLKAAGIPAAILTAKHADGFCLWPSKYTDYSVKNAAWKNGKGDVVREFVDACEEYGLKAGIYLGPHDRHEHLSPLYTTERYKEYYAHQLGELMSDYGKIWETWWDGAGADELTTPVYRHWYKIVREKQPDCVIFGTKNSYPFADVRWMGNEAGEAGDPCWATTDSVAIRDEAQYYKGLNEGMLDGDAYIPAETDVSIRPSWFYHAEEDSRVKSVRELWDIYCTSVGRNSVLLLNFPPDRRGLIHSTDSLHAALLKQGIDETFSTNLLRGAKVKATNVRGAKYSPEKMLDNEKNTYFAGKDGEVKADIIFTLPKTIEFDCLMIEEVIELGHRTTKWSVEYTVDGKNWITIPEATDKQAIGHKWIVRLAPVKAKQVRLRIQDGKACPAIHTFGVYKQSPVFKEGHHHHHH”, the protein production entry is “not failed”.

For “MSLAQGRQVIGLDIGTTSTIAILVRLPDTVVAVASRPTTLSSPHPGWAEEDPAQWWDNARAVLAELKTTAGESDWRPGGICVTGMLPAVVLLDDRGAVLRPSIQQSDGRCGDEVAELRAEVDSEAFLARTGNGVTQQLVTAKLRWIERHEPAVFGAIATVCGSYDYINMLLTGERVVDRNWALEGGFIDLASGTVEADLVALAHIPPSAVPPAHPTHRVLGAVTAEAAALTGLPTGLPVYGGAADHIASALAAGITRPGDVLLKFGGAGDIIVASATAKSDPRLYLDYHLVPGLYAPNGCMAATGSALNWLAKLLAPEAGEAAHAQLDALAAEVPAGADGLVCLPYFLGEKTPIHDPFASGTFTGLSLSHTRGHLWRALLEAVALAFRHHVAVLDDIGHAPQRFFASDGGTRSRVWMGIMADVLQRPVQLLANPLGSAVGAAWVAAIGGGDDLGWDDVTALVRTGEKITPDPAKAEVYDRLYRDFSALYATLHPFFHRSREGHHHHHH”, the protein production result is recorded as “not failed”.

Regarding “MSLASNKKYTFACLLPKHLEGEYWTDVQKGIREAVTTYSDFNISANITHYDPYDYNSFVATSQAVIEEQPDGVMFAPTVPQYTKGFTDALNELGIPYIYIDSQIKDAPPLAFFGQNSHQSGYFAARMLMLLAVNDREIVIFRKIHEGVIGSNQQESREIGFRQYMQEHHPACNILELNLHADLNIEDSRMLDDFFREHPDVKHGITFNSKVYIIGEYLQQRRKSDFSLIGYDLLERNVTCLKEGTVSFLIAQQPELQGFNSIKTLCDHLIFRKEVACTNYMPIDLLTKENIDYYHSEGHHHHHH”, the protein production entry is reported as “not failed”.

For “MSLDDIINNMIDKLKLLVHFDRISFLLLANETLKLSHVYPKGSHSLDIGSTIPKEQSLYWSALDQRQTIFRSLTDTQDNFYEKQYLAILDLKSILVIPIYSKNKRVGVLSIGRKQQIDWSLDDLAFLEQLTDHLAVSIENVELYGQVLRSKQEWEDTFKAVD”, the protein production result is “not failed”.

Regarding “MSLDKGDKAPDFALPGKTGVVKLSDKTGSVVYLDFWASWCGPCRQSFPWMNQMQAKYKAKGFQVVAVNLDAKTGDAMKFLAQVPAEFTVAFDPKGQTPRLYGVKGMPTSFLIDRNGKVLLQHVGFRPADKEALEQQILAALGGNEGHHHHHH”, the protein production entry was “not failed”.

“MSLDQIKIAYIGGGSQGWARSLMSDLSIDERMSGTVALYDLDFEAAQKNEVIGNHSGNGRWRYEAVSTLKKALSAADIVIISILPGSLDDMEVDVHLPERCGIYQSVGDTVGPGGIIRGLRAVPIFAEIARAIRDYAPESWVINYTNPMSVCTRVLYKVFPGIKAIGCCHEVFGTQKLLAEMVTERLGIEVPRREDIRVNVLGINHFTWITKASYRHIDLLPIFREFSAHYGESGYELEGECWRDSVFCSAHRVAFDLFETYGAIPAAGDRHLAEFLPGPYLKQPEVWKFHLTPISFRKQDRAEKRQETERLIVQQRGVAEKASGEEGVNIIAALLGLGELVTNVNMPNQGQVLNLPIQAIVETNAFITRNRVQPILSGALPKGVEMLAARHISNQEAVADAGLTKDTGLAFQAFLNDPLVQIDRSDAEQLFNDMLQCIMQSEGHHHHHH”: the protein production result was “not failed”.

Regarding “MSLEESLEQLKRQYLHALPDKKKQIITLWVSLRKNWQSYMLSAVYREVHNLKGSSETFGLTETKDIVDKLELQLKNLLDAPAPTLNLIKGLDTLFHQLLQNNQHYLPAAPVVEAQMQQNPYNPSKARHEYCIAIIEDDNNVGAMITKQLHEFGFNVQHFLNFTDFIKVQYASPFDLILLDLILPDYTEDALFEAACEFEKNNTRVFVLSSRSDFDMRLLAIRANVSEYFVKPAETTLLVRKIHQWLKMSDKPPLKVLLVDDQQSMVDYFSSLLRSHGLMVRGMTKPEQVIPTLEQFEPDLFIFDLYMPGVNGLELARMIRQLDKYTSSPILVLSSDDTMQNKVSIIQAGSDDLISKQTAPSLFVTQVISRAQRGHDIRSSASRDSLTGLLNHTQILVAARHCINLAKRANSSVCIAMLDLDHFKQVNDTYGHSGGDKVLLAFAHLLQQSLRAADFMGRYGGEEFMLVIPDMPAPLVIAKVNAIRESFSNIVFVEEGAEFKVTLSGGLAFSTECHEFQECLLLADKNLYEAKRTGRNRIINTLVK”, the protein production entry is reported as “failed”.

As for “MSLEKQIESYYQEIAQLIIDMIPEEWAEVRFYAQEDHDGWKIFFFHYLSASSDEWTKDIDIRDVIKVPQDEFMEKYNELSFCISDFRKDYAEAFGEPWMSFQMTFYASGKFNIDFYYDKNPFDTFLTRLAWQYEHFGTIPEDSFYKETLNEYLEEKAQGKRYPFLEPLKEEEGHHHHHH”, the protein production entry is given as “not failed”.

As to “MSLELPAEVQEMPIYREWISGILAGKIASPFWEMAQPQKNQHCLDIGCGVSFLIYPWRDWQAFFYGQDVSNVARDTLNSRGSQLNSKLFKGVELGAAHQLKYTLSYFDLAIATGFSCYFPLEYWTSVLQAVKRVLKPDGHFVFDILNAAHPQAEDWAVLETYLGAEVFLEPVTEWEKIINAAGAKVVGRQPGEFFDLYKLRLEHHHHHH”, the protein production entry was “not failed”.

In the case of “MSLENKFARTVLGDIPVEKLGITDCHDHFIKNGGPEVEEHIDFLMLNVDASIKEFKEFIDRGGSTIVTMDPPNVGRDVLKTLEIANAVKNLGGNVIMSTGFHKAKFYDKYSSWLAVVPTEEIVKMCVAEIEEGMDEYNYNGPVVKRSKAKAGIIKAGTGYGAIDRLELKALEVAARTSILTGCPILVHTQLGTMALEVAKHLIGFGANPDKIQISHLNKNPDKYYYEKVIKETGVTLCFDGPDRVKYYPDSLLAENIKYLVDKGLQKHITLSLDAGRILYQRNYGLTKGKQTFGLAYLFDRFLPLLKQVGVSKEAIFDILVNNPKRVLAFDEKRNFDPLKVSKEVLELKKELNLNEGHHHHHH”, the protein production result is recorded as “not failed”.

For the sequence “MSLERLRVAAYCRVSTDSEDQLNSYKSQVQYYTDMIKKNKEWVLADIYADEAITGTQVTKREDFQRMINDCMNGEIDMVFTKSISRFARNTLDTLKYVRMLKERNIAVYFEDEKINTLTMDGELLLVVLSSVAQQEVENISANVKKGLKMKMKRGELVGFQEGHHHHHH”, the protein production entry was “not failed”.

Consider “MSLESMLSHPPIPIADMAEHTERLKANDSLKLSQEYESIDPGQQFTWEHSNLEVNKPKNRYANVIAYDHSRVILQPIEGIMGSDYINANYVDGYRRQNAYIATQGPLPETFGDFWRMVWEQRSATIVMMTRLEEKSRIKCDQYWPNRGTETYGFIQVTLLDTIELATFCVRTFSLHKNGSSEKREVRQFQFTAWPDHGVPEYPTPFLAFLRRVKTCNPPDAGPIVVHCSAGVGRTGCFIVIDAMLERIKPEKTVDVYGHVTLMRSQRNYMVQTEDQYSFIHEALLEAVGCGNTEVPARSLYAYIQKLAQVEPGEHVTGMELEFKRLANSKAHTSRFISANLPCNKFKNRLVNIMPYESTRVCLQPIRGVEGSDYINASFIDGYRQQKAYIATQGPLAETTEDFWRMLWENNSTIVVMLTKLREMGREKCHQYWPAERSARYQYFVVDPMAEYNMPQYILREFKVTDARDGQSRTVRQFQFTDWPEQGVPKSGEGFIDFIGQVHKTKEQFGQDGPISVHCSAGVGRTGVFITLSIVLERMRYEGVVDIFQTVKMLRTQRPAMVQTEDEYQFCYQAALEYLGSFDHYATEGHHHHHH”, for which the protein production entry was “not failed”.

With “MSLEWCKNRLEITGRSVFVDIMQQWVTGEEVPLYRHAIQQSIRLFLAGCAGILKPVKCMEYPPFPRLVSHGTGSAVASNLAFQHWLDLLLKDAVLDGDTIRQIDRIYLQSGIASVKWETIPEGARQIITQLMARQYPDWFGVASWSSHINGADCWTKLGVMQEHACNCDMLMIIPTRLAIELNGNSQLLTGVSTTHDLYSHLYGMAWPSGQNIIWQRDRINSLRLDFDSPSYPPSAELMGELSAVFDCEIRHWYQEPVNGIRGYDCYDRGDHVDSGEYGAGPFLPPLKVEEVTVNGQEEAAEGHHHHHH”, the protein production result is recorded as “not failed”.

Consider “MSLFGRLLSLLLAFVPLSICAAVNHLPVVGEDYVEIPDGRPFAPLAGKIEVVEIFGYTCPHCAHFDSKLQAWGARQAKDVRFTLVPAVFGGVWDPFARAYLAADVLGVAKRSHAAMFEAIHEKGSVPIQNVGPDELAVFYAGYGVQPDRFVATFNGPEVEKRFQAARAYALKVRPVGTPAIVVDGRYMVTGHDFDDTLRITDYLVSRERAASHGR”, for which the protein production result is “failed”.

With “MSLGELNVATVTRRPEILLVDSQEVILQRLQQLLSPLPYTLHFARDATQALQLLASREVDLVISAAHLPQMDGPTLLARIHQQYPSTTRILLTGDPDLKLIAKAINEGEIYRYLSKPWDDQELLLALRQALEHQHSERERLRLQDEGHHHHHH”, the protein production result is recorded as “not failed”.

As for “MSLGVTMHDVAKAAGVSAITVSRVLNQPQQVSEQLREKVMQAVDALAYVPSRSASTLASAKSRTVLVLIPSLANTVFLETLTGIETVLDAAGYQMLIGNSHYDAGQELQLLRAYLQHRPDGVLITGLSHAEPFERILSQHALPVVYMMDLADDGRCCVGFSQEDAGAAITRHLLSRGKRRIGFLGAQLDERVMKRLDGYRAALDAADCRDAGLEWLDPQPSSMQMGADMLDRALAERPDCDALFCCNDDLAIGALARSQQLGIAVPERLAIAGFNDLQPAAWCTPPLTTVATPRRDIGVHAAKALLQLIDGEEPASRRADLGFRLMLRRSSEGHHHHHH”, the protein production entry is reported as “not failed”.

Take “MSLHPVSISLSSYGADLVRSRGQASFLPLLAMAGAQRVELREELFAGPPDTEALTAAIQLQGLECVFSSPLELWREDGQLNPELEPTLRRAEACGAGWLKVSLGLLPEQPDLAALGRRLARHGLQLLVENDQTPQGGRIEVLERFFRLAERQQLDLAMTFDIGNWRWQEQAADEAALRLGRYVGYVHCKAVIRNRDGKLVAVPPSAADLQYWQRLLQHFPEGVARAIEYPLQGDDLLSLSRRHIAALARLGQPQEERQHG”: the protein production entry is reported as “not failed”.

For the sequence “MSLHTSHVIPAPRIDVWEWHTRPGAVFRLTPPFLPLRPLEQATSLAKGTTVFALPAGLRWEARHDLSGYIQHHRFTDVCINAPVKSLASWRHIHDFTDHPSGTLITDTVHTRAPRTTLSPAFAYRQHQLINDIQAQQRFYELTRSNPTESTPLTIGLTGSRGLVGRALTAQLTTLGHTVVQLVRGESKPHQRHWDPAHPAPNLLEGLDALIHLAGEPILGRFNDAHKADIRDSRIEPTRQLSQLVQKSSTCRTMVSASAIGYYGHARGDEILDEGSTQGDDFLASVCEEWEAASRTDATSNKRIVNIRTGVVMSGRGGMLPVLKAVFSVGLGGPFRGSNPWMSWIAIDDLCDIYIRAVLDPKLSGAINAVAPNPIKNQDFVDALAKELKRPAKMTISSLGPAILLGQQGAKELALADQRVQPRVLNNLDHHFRYVDIRSCLAHELGGENLLDI”, the protein production entry is “failed”.
